Experimental data published in PMC6761100.

target: Myc.His.CK1a; experiment: c-Myc immunoprecipitation (CK1a IP); conditions: strains cultured in LL; n = 4; parent: est. 1.0; read off a plot

Sequence | ratio to parent
FREQUENCY (FRQ), wild type (from UniProt P19970) L488V | 0.23
FREQUENCY (FRQ), wild type (from UniProt P19970) Q325N | 0.97
FREQUENCY (FRQ), wild type (from UniProt P19970) Q494N | 0.68
FREQUENCY (FRQ), wild type (from UniProt P19970) V320I | 0.52
